Results: patent US20260209385A1 (ANALYTICAL BIOSCIENCES SHANGHAI, published 2026)

B1: ABC138 (anti-hCCR8 parental antibody) (antibody, human IgG1, kappa, V domains shown)
VH: EVQLVESGGGLVQPGGSLRLSCAASGFPFNTFAMNWVRQAPGKGLEWLARIRSKSNNYATYYADSVKDRFTISRDNAKRSLYLQMNSLRAEDTAVYYCVRGKENNYGYAMDYWGQGTTVTVSS
VL: DIVMTQSPLSLPVTPGEPASISCRSSKSLLHSNANTYLYWFLQKPGQSPQLLIYRMSNLASGVPDRFSGSGSGTDFTLKISRVEAEDVGVYYCMQHVEYPFTFGGGTKLEIKR
B2: ABC753 (ABC753_hCCR8/hCD3_675, anti-hCCR8 x anti-hCD3 BsAb in ABC675 format) (bispecific antibody, human IgG1, kappa, N297A)
heavy 1: EVQLVESGGGLVQPGGSLRLSCAASGFPFNTFAMNWVRQAPGKGLEWLARIRSKSNNYATYYADSVKDRFTISRDNAKRSLYLQMNSLRAEDTAVYYCVRGKENNYGYAMDYWGQGTTVTVSSASTKGQVKPEAWLSSCPSPGPGRLQLVCHVSGFYPKPVWVMWMRGEQEQQGTQLSEILPNANWTWYLRATLDVADGEAAGLSCRVKHSSLEGQDIILYWRGSGDKTHTCPPCPAPELLGGPSVFLFPPKPKDTLMISRTPEVTCVVVDVSHEDPEVKFNWYVDGVEVHNAKTKPREEQYASTYRVVSVLTVLHQDWLNGKEYKCKVSNKALPAPIEKTISKAKGQPREPQVCTLPPSREEMTKNQVSLSCAVKGFYPSDIAVEWESNGQPENNYKTTPPVLDSDGSFFLVSKLTVDKSRWQQGNVFSCSVMHEALHNHYTQKSLSLSPGK
light 1: not shown
heavy 2: not shown
light 2: not shown
B3: ABC752 (ABC752_hCCR8/hCD3_673, anti-hCCR8 x anti-hCD3 BsAb in ABC673 format) (bispecific antibody, human IgG1, kappa, N297A)
heavy 1: EVQLVESGGGLVQPGGSLRLSCAASGFPFNTFAMNWVRQAPGKGLEWLARIRSKSNNYATYYADSVKDRFTISRDNAKRSLYLQMNSLRAEDTAVYYCVRGKENNYGYAMDYWGQGTTVTVSSASTKGQVKPEAWLSHCPSPGPGHLQLVCHVSGFYPKPVWVMWMRGEQEQQGTQRSEILPSADGTWYLRATLEVAAGEAADLSCRVKHSSLEGQDIVLYWEGSDKTHTCPPCPAPELLGGPSVFLFPPKPKDTLMISRTPEVTCVVVDVSHEDPEVKFNWYVDGVEVHNAKTKPREEQYASTYRVVSVLTVLHQDWLNGKEYKCKVSNKALPAPIEKTISKAKGQPREPQVCTLPPSREEMTKNQVSLSCAVKGFYPSDIAVEWESNGQPENNYKTTPPVLDSDGSFFLVSKLTVDKSRWQQGNVFSCSVMHEALHNHYTQKSLSLSPGK
light 1: not shown
heavy 2: not shown
light 2: not shown

Assays:
[1] = target: T1, hCCR8 antigen on hCCR8-transfected 293T cells (human, UniProt P51685 1-355); test: flow cytometry on hCCR8-transfected 293T cells, FITC anti-human IgG Fc, median fluorescence, 4-parameter fit
T1 construct: whole, on cells; also called human CCR8
T1 sequence (P51685 whole entry): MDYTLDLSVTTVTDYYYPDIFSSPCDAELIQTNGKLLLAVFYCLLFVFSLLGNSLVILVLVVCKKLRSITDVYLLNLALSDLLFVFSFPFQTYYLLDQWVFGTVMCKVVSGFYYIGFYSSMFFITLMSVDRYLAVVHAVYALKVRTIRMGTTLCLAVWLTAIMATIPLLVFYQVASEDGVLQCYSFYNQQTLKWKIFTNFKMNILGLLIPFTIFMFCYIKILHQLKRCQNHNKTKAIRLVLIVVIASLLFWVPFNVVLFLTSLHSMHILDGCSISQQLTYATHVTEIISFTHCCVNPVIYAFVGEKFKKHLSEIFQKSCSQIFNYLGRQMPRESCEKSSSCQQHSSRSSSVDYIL
Experimental: (§1) Serially diluted antibodies or bispecifics were then added, with a maximum final concentration of 1000 nM and 3-fold dilution using PBS buffer. After incubating on ice for 30 mins, the plates were washed two times with FACS buffer (PBS buffer with 0.5 mg/ml BSA, 0.02% tween) and incubated with FITC anti-human IgG antibody (Goat Anti Human (IgG Fc) secondary antibody FITC, Abcam #ab97224, 1:1000) on ice for 30 mins, followed by two times wash with FACS buffer. […] Data were analyzed with GraphPad Prism. Median fluorescent intensity was plotted versus antibody concentration and EC50 was calculated by fitting the curve with the function of log (agonist) vs. response—Variable slope (four parameters).

[2] = target: T2, hCD3 antigen on Jurkat clone E6-1 cells (human); test: flow cytometry on Jurkat cells, FITC anti-human IgG Fc, median fluorescence, 4-parameter fit
T2 construct: whole, on cells; also called human CD3; hCD3 (Jurkat cell)
T2 sequence (P07766 23-207, chain 1 of 4): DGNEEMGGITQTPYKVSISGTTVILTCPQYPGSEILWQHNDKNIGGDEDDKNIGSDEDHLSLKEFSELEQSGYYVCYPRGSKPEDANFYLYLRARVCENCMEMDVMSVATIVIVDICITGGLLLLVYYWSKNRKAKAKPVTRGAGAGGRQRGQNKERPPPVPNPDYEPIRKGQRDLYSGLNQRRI
T2 sequence (P09693 23-182, chain 2 of 4, further chain): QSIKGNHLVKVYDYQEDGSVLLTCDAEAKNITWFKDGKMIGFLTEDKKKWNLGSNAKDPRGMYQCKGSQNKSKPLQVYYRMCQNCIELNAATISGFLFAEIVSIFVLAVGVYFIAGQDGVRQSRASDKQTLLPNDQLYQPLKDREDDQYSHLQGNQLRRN
T2 sequence (P04234 22-171, chain 3 of 4, further chain): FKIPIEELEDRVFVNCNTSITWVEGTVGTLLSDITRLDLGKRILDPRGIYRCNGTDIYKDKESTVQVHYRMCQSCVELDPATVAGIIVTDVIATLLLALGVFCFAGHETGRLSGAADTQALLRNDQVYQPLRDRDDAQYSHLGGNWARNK
T2 sequence (P20963 22-164, chain 4 of 4, further chain): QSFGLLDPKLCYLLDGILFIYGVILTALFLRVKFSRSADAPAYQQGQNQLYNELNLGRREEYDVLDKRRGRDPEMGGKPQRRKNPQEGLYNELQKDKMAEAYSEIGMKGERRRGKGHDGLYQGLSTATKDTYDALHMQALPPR
Experimental: as §1

Binder	EC50 [1] [nM]	EC50 [2] [nM]
B1	0.34	–
B2	2.14	2.09
B3	2.9	2.57
